# Data reported in publication doi:10.1101/2025.11.06.687086.
# Molecular target: A/Solomon Islands/3/2006 (H1N1) HA (influenza A virus A/Solomon Islands/3/2006 (H1N1))
# Assay: cryo-EM structure
substance,measurement,value
A/Solomon Islands/3/2006 (H1N1) HA (natural protein),stoichiometry N,3
